Results published in paper PMC9022993.

Target: human parkin, full-length, affinity tag cleaved (human) (UniProt O60260)
Test: ITC; parkin (20 µM in 162 µl) in the cell titrated with the chimera (mG2-Ub 100 µM, CISD1-Ub 212 µM, mG2-pUb 84 µM, CISD1-pUb 106 µM); 18°C or 25°C; 25 mM HEPES or 20 mM Tris, 100 mM NaCl, 250 µM TCEP, pH 7.5 or 8.0; duplicate; single-site model

Chain of human parkin, full-length, affinity tag cleaved (human) (O60260 whole entry): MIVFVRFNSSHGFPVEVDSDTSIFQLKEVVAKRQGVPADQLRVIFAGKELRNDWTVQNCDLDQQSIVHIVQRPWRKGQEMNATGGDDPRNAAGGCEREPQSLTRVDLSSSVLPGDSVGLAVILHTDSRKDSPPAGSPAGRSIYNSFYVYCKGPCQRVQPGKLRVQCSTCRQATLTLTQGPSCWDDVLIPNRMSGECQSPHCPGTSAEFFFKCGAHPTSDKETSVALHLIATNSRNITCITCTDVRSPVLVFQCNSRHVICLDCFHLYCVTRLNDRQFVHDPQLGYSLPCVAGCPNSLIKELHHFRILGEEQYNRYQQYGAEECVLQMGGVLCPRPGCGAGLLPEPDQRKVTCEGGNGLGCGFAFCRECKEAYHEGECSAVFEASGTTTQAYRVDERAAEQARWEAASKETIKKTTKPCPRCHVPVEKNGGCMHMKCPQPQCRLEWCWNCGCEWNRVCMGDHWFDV

| Kd | dH | Substance |
| --- | --- | --- |
| 450 nM | 30 kJ/mol | CISD1-pUb (CISD1-Ub phosphorylated by PINK1 at S65 of its Ub) (from UniProt Q9NZ45 32-108; P0CG63 1-76) |
| 920 nM | 41 kJ/mol | mG2-pUb (mG2-Ub phosphorylated by PINK1 at S65 of its Ub) (from UniProt Q8IXI2 402-582; P0CG63 1-76) |
